Test results as given in US20200131277A1.

Target: pY peptide GGGpYGGG
Assay: BLI (Octet RED384), biotinylated peptide on streptavidin sensor, Fab in solution, 1:1 fit

Kd | Substance
1.83 µM | PY20^4D5 (Fab)
0.277 µM | 4G10^4D5 (Fab)
